Reference: patent US7442773B2, “Universal peptide-binding scaffolds and protein chips” (The Board of Trustees of The University of Illinois, priority 2004, dated 2008)

Target: biotinylated HA306-318 peptide
Assay type: binding, influenza virus
Settings: 20 hours at 37° C., flow cytometry, estimated, read-out: apparent dissociation constant KD of the biotinylated HA306-318 peptide complex

B1: DWP-7: evolved single-chain HLA-DR1 variant (α-linker-β) from library lib-αβ, SEQ ID NOs:35 and 36 (protein)
chain: RKEEHVITQAEFYLNPDQSGEFMFDFDGDEIFHVDMAKKETVWRLEEFGRFASFEAQGALANIAVDKANLEIMTKRSNYTPITNVPPEVTVLTNSPVELREPNVLICYIDKFTPPVVNVTWLRNGKPVTTGVSETVFLPREDHLFRKFHYLPFLPSTEDVYDCRVEHWGLDEPLLKHWEFNAPSPLPETTENLGGGGSGGGRSGGGGSGDTRPRFLWQHKFECHFFNGTERVRLLERCIYNQEESVRFDSDVGEYRAVTELGRPAAEYWNSQKDLLEQRRAAADTYCRHNYGVGESFTVRRRVEPKVTVYPSKTQPLQHHNLLVCSVSGFYPGSIEVRWFRNGQEEKAGVVSTGLIQNGDWTFQTLVMLETVPRSGEVYTCQVEHPSVTSPLTVEWRARSESAQSKLESRGPFEGKPIPNPLLGLDSTRTGHHHHHH
modifications: Sequence of mutant DWP-7
**Q.** B1 was tested. Which Kd did it give?
**A.** Its Kd is 5 µM.
